In doi:10.1101/2024.09.04.610228 (bioRxiv, 2024):
Ends that are not written are not given here.

Target: FOXO4 forkhead domain (FHD) (95-195) (UniProt P98177 95-195)
Assay: fluorescence polarisation

Sequence of FOXO4 forkhead domain (FHD) (95-195) (P98177 95-195): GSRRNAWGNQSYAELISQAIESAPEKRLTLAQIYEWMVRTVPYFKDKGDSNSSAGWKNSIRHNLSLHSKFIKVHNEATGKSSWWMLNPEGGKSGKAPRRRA

Row | Binder | fold enhancement of inhibitory ability against p53 TAD PEP [fold] | Kd [µM]
1 | ALMLSPAAIAQWFTAA [CAND] | ~3 | 
2 | DLMLSPDDIEQWFTED (also: FITC label, position not given here) [FITC-labeled p53 TAD PEP (42-57)] |  | 0.11
